{"source": "paper PMC11001878", "about": "“Engineering an artificial catch bond using mechanical anisotropy” (Nature Communications, 2024)", "molecules": {"B1": {"name": "CohE wild-type (domain or fragment)", "chain": "LSMDQKFAEPGETVEIALNLENFDASWTGLEFLVNYDPKLEVALDGAGDIDYSYGDAIGAMGKKISVGGAISKDLTADGLKGFAFAWGTATAISGNGQLGVFKFTVPADAQPGDEFPVNLTVNVGSFIDANKENIPFETVNGWIKI"}, "B2": {"name": "CohE F13AzF-Fgβ (domain or fragment)", "chain 1": "B1 chain", "chain 2": "NEEGFFSARGHRPLDGSWSHPQFEKGSGSC", "modifications": "azido-phenylalanine (AzF) at 13, covalently conjugated by the azide-DBCO click reaction with the Fgβ-StrepTag-DBCO peptide | C-terminal cysteine bearing DBCO, linked to the azide of AzF13 of the CohE chain"}, "B3": {"name": "CohE K87AzF-Fgβ (domain or fragment)", "chain 1": "B1 chain", "chain 2": "B2 chain 2", "modifications": "azido-phenylalanine (AzF) at 87, covalently conjugated by the azide-DBCO click reaction with the Fgβ-StrepTag-DBCO peptide | C-terminal cysteine bearing DBCO, linked to the azide of AzF87 of the CohE chain"}}, "key": {"[1]": {"target": "ybbr-ELP-FLN-DocG (Ruminococcus champanellensis)", "test": "AFM single-molecule force spectroscopy; constant pulling speed (100, 400, 800, 3200 nm/s); both partners tethered through ybbr tags, CohE on the cantilever and DocG on the glass; dwell 200 ms; TBS Ca buffer (25 mM Tris, 72 mM NaCl, 1 mM CaCl2, pH 7.2); zero-force off rate k0 from a Bell-Evans fit, one for each unbinding pathway"}, "[2]": {"target": "DocG-FLN-ELP-ybbr (Ruminococcus champanellensis)", "test": "AFM single-molecule force spectroscopy; constant pulling speed (100, 400, 800, 3200 nm/s); both partners tethered through ybbr tags, CohE on the cantilever and DocG on the glass; dwell 200 ms; TBS Ca buffer (25 mM Tris, 72 mM NaCl, 1 mM CaCl2, pH 7.2); zero-force off rate k0 from a Bell-Evans fit, one for each unbinding pathway"}, "[3]": {"target": "T1, DocG A77C mutant protein labeled with Cy3b (Ruminococcus champanellensis, A77C, Cy3b (maleimide-conjugated) on the cysteine at 77)", "T1 chain": "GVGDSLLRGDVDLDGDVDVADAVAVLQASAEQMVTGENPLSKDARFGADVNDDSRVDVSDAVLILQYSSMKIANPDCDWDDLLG", "test": "MST; 20 nM Cy3b-labelled DocG A77C mixed with a series of CohE, 16 samples, 0.0763 nM to 2.5 µM; Nanotemper Monolith NT.115", "conditions": "both partners purified"}}, "data": [{"molecule": "CohE-FLN-ELP-ybbr (domain or fragment)", "values": [{"measurement": "log(k0), high force pathway", "setting": "[1]", "result": -7}, {"measurement": "log(k0), low force pathway", "setting": "[1]", "result": -9}, {"measurement": "log(k0), high force pathway", "setting": "[2]", "result": -7}, {"measurement": "log(k0), low force pathway", "setting": "[2]", "result": -31}]}, {"molecule": "ybbr-ELP-FLN-CohE (domain or fragment)", "values": [{"measurement": "log(k0), single pathway", "setting": "[1]", "result": -4.2}]}, {"molecule": "B1", "values": [{"measurement": "Kd", "setting": "[3]", "result": "14 ± 4", "unit": "nM"}]}, {"molecule": "B2", "values": [{"measurement": "Kd", "setting": "[3]", "result": "40 ± 8", "unit": "nM"}]}, {"molecule": "B3", "values": [{"measurement": "Kd", "setting": "[3]", "result": "19 ± 10", "unit": "nM"}]}]}
